Experimental data: publication doi:10.1101/2024.12.27.630466

Molecular target: ErlA
Test: SEC

In the case of ErlB (natural protein), the stoichiometry N (ErlB per ErlA (4:4)) is reported as 1.
